Patent US20190153059A1 (ADEPTHERA, published 2019)
Like-named read-outs stand apart in the source and are kept apart here. * marks the point of attachment. Palmitoyl = CCCCCCCCCCCCCCCC(=O)*; miniPEG = mini-PEG spacer unit

Columns and labels:
Assay in all cases: cell-based or functional assay
[1] = target: T1, CLR/RAMP2 receptor (UniProt Q16602 23-461; O60895 43-175, limits assumed)
[2] = target: T2, CLR/RAMP1 receptor (UniProt Q16602 23-461; O60894 27-148, limits assumed)
[3] = target: T1, CLR/RAMP2 receptor; remark: listed apart in the source
[4] = target: T3, CLR/RAMP3 receptor (UniProt Q16602 23-461; O60896 24-148, limits assumed)
T3 sequence (Q16602 23-461 limits assumed, chain 1 of 2): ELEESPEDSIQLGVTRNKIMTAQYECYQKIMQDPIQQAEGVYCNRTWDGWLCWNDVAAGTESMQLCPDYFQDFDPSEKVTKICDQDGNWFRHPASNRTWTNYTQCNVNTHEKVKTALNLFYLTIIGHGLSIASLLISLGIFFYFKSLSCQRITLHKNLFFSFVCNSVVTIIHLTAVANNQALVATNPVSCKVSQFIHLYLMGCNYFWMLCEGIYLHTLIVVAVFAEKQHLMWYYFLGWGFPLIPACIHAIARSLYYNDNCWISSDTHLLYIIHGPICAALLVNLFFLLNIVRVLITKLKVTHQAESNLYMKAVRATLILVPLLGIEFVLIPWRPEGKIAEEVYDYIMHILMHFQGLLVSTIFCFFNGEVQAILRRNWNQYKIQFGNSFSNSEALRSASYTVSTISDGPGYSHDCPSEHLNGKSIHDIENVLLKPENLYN
T3 sequence (O60896 24-148 limits assumed, chain 2 of 2): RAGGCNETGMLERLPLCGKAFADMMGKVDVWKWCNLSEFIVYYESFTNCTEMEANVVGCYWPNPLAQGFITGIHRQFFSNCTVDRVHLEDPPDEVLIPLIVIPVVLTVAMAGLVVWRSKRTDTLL

[5] = target: T2, CLR/RAMP1 receptor; remark: listed apart in the source
[6] = target: T1, CLR/RAMP2 receptor; remark: listed apart in the source
[7] = target: T3, CLR/RAMP3 receptor; remark: listed apart in the source
[8] = target: T2, CLR/RAMP1 receptor; remark: listed apart in the source
[9] = target: T1, CLR/RAMP2 receptor; remark: listed apart in the source
[10] = target: neurotensin receptor 1 (NTSR1) (UniProt P30989 1-418, limits assumed)
neurotensin receptor 1 (NTSR1), sequence (P30989 whole entry): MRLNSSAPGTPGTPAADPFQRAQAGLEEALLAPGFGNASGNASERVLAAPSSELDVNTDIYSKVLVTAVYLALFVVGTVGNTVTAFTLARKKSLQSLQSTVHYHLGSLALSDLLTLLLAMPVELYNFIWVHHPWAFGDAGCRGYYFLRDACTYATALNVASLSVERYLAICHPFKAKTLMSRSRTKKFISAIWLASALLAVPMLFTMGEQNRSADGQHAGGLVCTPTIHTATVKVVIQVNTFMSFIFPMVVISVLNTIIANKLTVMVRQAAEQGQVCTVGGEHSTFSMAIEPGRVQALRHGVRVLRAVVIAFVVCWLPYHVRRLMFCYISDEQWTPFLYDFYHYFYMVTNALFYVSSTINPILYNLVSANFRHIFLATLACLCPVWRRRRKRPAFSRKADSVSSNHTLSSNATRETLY

T1 sequence (Q16602 23-461 limits assumed, chain 1 of 2): as the sequence (Q16602 23-461 limits assumed, chain 1 of 2) above
T1 sequence (O60895 43-175 limits assumed, chain 2 of 2): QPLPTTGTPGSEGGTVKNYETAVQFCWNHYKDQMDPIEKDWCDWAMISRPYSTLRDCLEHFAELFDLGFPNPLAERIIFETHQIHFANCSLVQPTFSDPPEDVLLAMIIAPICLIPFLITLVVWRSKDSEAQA
T2 sequence (Q16602 23-461 limits assumed, chain 1 of 2): as the sequence (Q16602 23-461 limits assumed, chain 1 of 2) above
T2 sequence (O60894 27-148 limits assumed, chain 2 of 2): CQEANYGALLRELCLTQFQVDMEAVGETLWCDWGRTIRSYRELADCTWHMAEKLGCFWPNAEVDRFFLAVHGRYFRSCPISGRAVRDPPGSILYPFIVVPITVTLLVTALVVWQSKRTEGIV

Wild type ADM positive (human ADM positive control) (from UniProt P35318 95-146) (peptide)
CLR/RAMP2 Max Activity (% of positive controls) [1]: 100

Palmitoyl-TVQKLAHQIYQFTDKDKDNSAPVDPSSPHSY-NH2 [SEQ ID NO: 77]
CLR/RAMP1 IC50 [2]: 9.9 nM | CLR/RAMP2 IC50 [3]: 47 nM

miniPEG-K(Palmitoyl)VQKLAHQIYQFTDKDKDNSAPVDPSSPHSY-NH2 [SEQ ID NO: 78]
CLR/RAMP1 IC50 [2]: 4.8 nM | CLR/RAMP1 Max Activity (antagonist) [2]: 104 % of positive control | CLR/RAMP2 IC50 [3]: 34 nM | CLR/RAMP2 Max Activity (antagonist) [3]: 107 % of positive control | CLR/RAMP3 IC50 [4]: 0.8 nM | CLR/RAMP3 Max Activity (antagonist) [4]: 101 % of positive control

Palmitoyl-KGCRFGTCTVQKLAHQIYQFTDKDVAPRSKISPQGY-NH2 (ends and bridges not checked) [SEQ ID NO: 103]
CLR/RAMP1 EC50 [5]: 4.5 nM | CLR/RAMP2 EC50 [6]: 0.7 nM | CLR/RAMP3 EC50 [7]: 0.3 nM

XLYENKPRRPYILKGCRFGTCTVQKLAHQIYQFTDKDVAPRSKISPQGY (Pyr(glu)- at N-terminus; miniPEG between LYENKPRRPYIL and K(PAL); K(PAL); -NH2) [NTSR1 and CLR/RAMP agonist MRL (SEQ ID NO: 223)]
CLR/RAMP1 EC50 [8]: 0.8 nM | CLR/RAMP1 Max Activity [8]: 102 % of positive controls | CLR/RAMP2 EC50 [9]: 1 nM | CLR/RAMP2 Max Activity [9]: 70 % of positive controls

Ace-TVQKLAHRLWQLMGPDKDNVAPRSKISPQGY-NH2 [SEQ ID NO: 116]
CLR/RAMP1 IC50 [2]: 152 nM | CLR/RAMP2 IC50 [3]: 7.3 nM | CLR/RAMP3 IC50 [4]: 53 nM

miniPEG-KGCRFGTCTVQKLAHQIYQFTDKDKDNSAPVDPSSPHSY-NH2 (cysteine pairing not given here; also: K(PAL) present, lysine not given here) [SEQ ID NO: 28]
CLR/RAMP1 EC50 [5]: 0.3 nM | CLR/RAMP3 EC50 [7]: 0.06 nM

miniPEG-KGCRFGTCTVQKLAHQIYQFTDKDSAPVDPSSPHSY-NH2 (cysteine pairing not given here; also: K(PAL) present, lysine not given here) [SEQ ID NO: 48]
CLR/RAMP1 EC50 [5]: 0.3 nM | CLR/RAMP2 EC50 [6]: 0.2 nM | CLR/RAMP3 EC50 [7]: 0.07 nM

miniPEG-KGCRFGTCTVQKLAHQIYQFTDKDVAPRSKISPQGY-NH2 (ends and bridges not checked; also: K(PAL), position not given here) [SEQ ID NO: 101]
CLR/RAMP2 EC50 [6]: 0.3 nM | CLR/RAMP3 EC50 [7]: 0.5 nM

Pal-KVQKLAHQSAPVDPSSPHSY-NH2 [SEQ ID NO: 124]
CLR/RAMP1 Max Activity (antagonist) [2]: 95 % of positive control | CLR/RAMP2 Max Activity (antagonist) [3]: 103 % of positive control | CLR/RAMP3 Max Activity (antagonist) [4]: 102 % of positive control

MiniPEG-KVQKLAHQIYQFTDKDSAPVDPSSPHSY-NH2 (also: K(Pal), Lys not given here) [SEQ ID NO: 112]
CLR/RAMP1 IC50 [2]: 1.8 nM | CLR/RAMP2 IC50 [3]: 5.3 nM | CLR/RAMP3 IC50 [4]: 2.3 nM

Ace-VTHRLAGLLSRFTDKDKDNVAPRSKISPQGY-NH2 [SEQ ID NO: 115]
CLR/RAMP1 IC50 [2]: 1880 nM | CLR/RAMP2 IC50 [3]: 117 nM | CLR/RAMP3 IC50 [4]: 115 nM

Palmitoyl-KVQNLSAPVDPSSPHSY-NH2 [SEQ ID NO: 141]
CLR/RAMP1 Max Activity (antagonist) [2]: 43 % of positive control | CLR/RAMP2 Max Activity (antagonist) [3]: 14 % of positive control

Palmitoyl-KVQKLAHQIYQFTDKDVAPRSKISPQGY-NH2 [SEQ ID NO: 119]
CLR/RAMP1 IC50 [2]: 21 nM | CLR/RAMP2 IC50 [3]: 0.6 nM | CLR/RAMP3 IC50 [4]: 1.5 nM

Palmitoyl-KVQKLNFVPTNVGSKAF-NH2 [SEQ ID NO: 142]
CLR/RAMP1 Max Activity (antagonist) [2]: 100 % of positive control | CLR/RAMP2 Max Activity (antagonist) [3]: 80 % of positive control

Palmitoyl-KVQKLAHQIYSAPVDPSSPHSY-NH2 [SEQ ID NO: 122]
CLR/RAMP1 IC50 [2]: 7.3 nM | CLR/RAMP2 IC50 [3]: 61 nM | CLR/RAMP3 IC50 [4]: 4.1 nM

Palmitoyl-KGCRFGTCTVQKLAHQIYQFTDKDSAPVDPSSPHSY-NH2 (cysteine pairing not given here) [SEQ ID NO: 92]
CLR/RAMP1 EC50 [5]: 0.4 nM | CLR/RAMP2 EC50 [6]: 0.3 nM | CLR/RAMP3 EC50 [7]: 0.2 nM

YGGFLRRIRPKLKKVQKLSAPVDPSSPHSY (Ace- at N-terminus; miniPEG between YGGFLRRIRPKLK and K(Pal); K(Pal); -NH2) [SEQ ID NO: 146]
CLR/RAMP1 IC50 [2]: < 0.5 nM | CLR/RAMP1 Max Activity (antagonist) [2]: 102 % of positive control

miniPEG-KGCRFGTCTVQKLAHQIYQFTDKDKDNVAPRSKISPQGY-NH2 (ends and bridges not checked; also: K(PAL), position not given here) [SEQ ID NO: 69]
CLR/RAMP1 Max Activity [5]: 70 % of positive control | CLR/RAMP2 EC50 [6]: 0.6 nM | CLR/RAMP3 EC50 [7]: 0.6 nM

Palmitoyl-KVQKLAHQISAPVDPSSPHSY-NH2 [SEQ ID NO: 123]
CLR/RAMP1 IC50 [2]: 4.7 nM | CLR/RAMP2 IC50 [3]: 50 nM

B1: NTSR1 agonist and CLR/RAMP antagonist MRL (SEQ ID NO: 224) (peptide)
peptide: XLYENKPRRPYILKVQKLSAPVDPSSPHSY
modifications: not fully specified; Pyr(glu)- at N-terminus; miniPEG between LYENKPRRPYIL and K(Pal); K(Pal); -NH2
NTSR1 EC50 (calcium flux assay) [10]: 26 nM | NTSR1 Max Activity [10]: 57 % of positive controls | CLR/RAMP1 IC50 [8]: < 0.5 nM | CLR/RAMP1 Max Activity (antagonist) [8]: 99 % of positive controls | CLR/RAMP2 IC50 [9]: 1.5 nM | CLR/RAMP2 Max Activity (antagonist) [9]: 100 % of positive controls

Palmitoyl-KVQKLAHQIYQFTDKDSAPVDPSSPHSY-NH2 [SEQ ID NO: 121]
CLR/RAMP1 IC50 [2]: 3.2 nM | CLR/RAMP2 IC50 [3]: 4.9 nM | CLR/RAMP3 IC50 [4]: 1.8 nM

Palmitoyl-KVQKLAHQIYQFTDKSAPVDPSSPHSY-NH2 [SEQ ID NO: 125]
CLR/RAMP1 IC50 [2]: 7 nM | CLR/RAMP2 IC50 [3]: 7.1 nM

B2: AGTRL1 and CLR/RAMP agonist MRL (SEQ ID NO: 228) (peptide)
peptide: XRPRLSHKGPLPFKGCRFGTCTVQKLAHQIYQFTDKDVAPRSKISPQGY
modifications: not fully specified; (Glp) at N-terminus; (Nle) in RPRLSHKGP(Nle)PF; miniPEG before K(PAL); K(PAL); -NH2
CLR/RAMP1 EC50 [8]: 0.6 nM | CLR/RAMP1 Max Activity [8]: 130 % of positive controls | CLR/RAMP2 EC50 [9]: 2 nM | CLR/RAMP2 Max Activity [9]: 74 % of positive controls

Ac-NFVPTNVGPFAF-NH2 [SEQ ID NO: 144]
CLR/RAMP2 IC50 [3]: > 10000 nM | CLR/RAMP2 Max Activity (antagonist) [3]: 0 % of positive control

B3: SSTR2 and CLR/RAMP MRL (SEQ ID NO: 218) (peptide)
peptide: FCFWKTCTKVQKLAHQIYQFTDKDVAPRSKISPQGY
modifications: (D-Phe) at position 1 and (D-Trp) in (D-Phe)CF(D-Trp)KTCT; miniPEG before K(Pal); K(Pal); -NH2
CLR/RAMP1 IC50 [8]: 2 nM | CLR/RAMP1 Max Activity (antagonist) [8]: 102 % of positive controls | CLR/RAMP2 IC50 [9]: < 0.5 nM | CLR/RAMP2 Max Activity (antagonist) [9]: 87 % of positive controls

Palmitoyl-KVQNLSHRLWQLMGPAGSAPVDPSSPHSY-NH2 [SEQ ID NO: 120]
CLR/RAMP1 IC50 [2]: 5.8 nM | CLR/RAMP2 IC50 [3]: 85 nM | CLR/RAMP3 IC50 [4]: 9.2 nM

Ac-TVQKLAHQIYQFTDKDKDNSAPVDPSSPHSY-NH2 [SEQ ID NO: 76]
CLR/RAMP1 IC50 [2]: 1120 nM | CLR/RAMP2 IC50 [3]: 289 nM

MiniPEG-KVQKLAHQIYSAPVDPSSPHSY-NH2 (also: K(Pal), Lys not given here) [SEQ ID NO: 114]
CLR/RAMP1 IC50 [2]: 4.8 nM | CLR/RAMP2 IC50 [3]: 146 nM | CLR/RAMP3 IC50 [4]: 8.4 nM

B4: BDKRB1 antagonist and CLR/RAMP agonist MRL (SEQ ID NO: 231) (peptide)
peptide: KRPPGFSIKGCRFGTCTVQKLAHQIYQFTDKDVAPRSKISPQGY
modifications: Ace- at N-terminus; D/Nal in KRPPGFS-D/Nal-I; miniPEG before K(PAL); K(PAL); -NH2
CLR/RAMP2 EC50 [9]: 1 nM | CLR/RAMP2 Max Activity [9]: 46 % of positive controls
